Experimental data: patent publication US20230265407A1, “HUMAN RECOMBINANT ACE2-FC MUTANTS THAT DECOUPLE ANTI-SARS-COV-2 ACTIVITY FROM CARD[…]” (Northwestern University, priority 2020, published 2023)
Entries after “also recorded” stand apart in the source; their conditions may differ. Read-outs that look alike come from different tables or passages of the source.

Experiments:
[1] = molecular target: ACE2 (Homo sapiens, UniProt Q9BYF1); conditions: cited from earlier work
[2] = system: AngII; assay: Phenylalanine Assay: ACE2 peptidase activity with AngII as substrate; conditions: phenylalanine hydrolysis, 20 min, 37° C.
Experimental: (§1) ACE2 peptidase activity measured using physiological substrates of AngII and apelin-13. […] It involves two coupled reactions, hydrolysis of the C-terminus phenylalanine residues from the substrates by ACE2 catalysis and the measurement of free amino acid phenylalanine using yeast enzyme of phenylalanine ammonia lyase (PAL) in a colorimetric assay (supplementary Figure S2).
(§2) The reactions were carried out using indicated concentrations of ACE2-Fc proteins together with either AngII or apelin-13 at indicated concentrations in reaction buffer containing 20 mM Tris-HCl, pH=7.4, 136 mM NaCl and 10 μM ZnC12. The first reaction was proceeded at 37° C. after 20 min before stopped by 80° C. heat inactivation for 5 min. The second reaction used a phenylalanine detection kit (Sigma-Aldrich, St. Louis, Mo.). 1 μL enzyme mix and 1 μL developer from the kit were added to the above reaction, which was allowed to proceed for 20 min at room temperature. Fluorescence intensity was measured at 535 nm excitation and 585 nm emission wavelength, and all reactions were performed in triplicate.
(§3) We performed Mca-APK(Dnp) measurements, alongside phenylalanine hydrolysis assays using AngII and apelin-13 as substrates to determine the enzymatic activities of the ACE2-Fc variants (FIG. 2A-C). […] The first method used an excess amount of the enzyme (100 ng) in reactions with varying concentrations of the three substrates. This would potentially detect low partial activity of enzymes.

[3] = system: Spike (SARS-CoV-2) pseudotyped lentivirus; format: cell-based
[4] = system: Mca-APK(Dnp) surrogate fluorogenic substrate; conditions: 20 min reaction, compared with wild-type ACE2-Fc
Experimental: ACE2 peptidase activity measured using surrogate Mca-APK(Dnp). ACE2-Fc peptidase activity assay using surrogate fluorogenic substrate Mca-APK(Dnp) (Enzo Life Sciences, Farmingdale, N.Y.) was performed in black microtiter plates. The reaction buffer contained 50 mM 4-morpholineethanesulfonic acid, pH=6.5, 300 mM NaCl, 10 μM ZnC12, 0.01% Triton X-100 and 20 μM of Mca-APK(Dnp). The total reaction volume was 100 μL at room temperature and the duration of the reactions were 20 min. Peptidase activities were calculated as fluorescence intensity at 320 nm excitation and 420 nm emission wavelength.
In parallel, we performed ACE2 activity assays using either Mca-APK(Dnp) or synthetic Ang II peptide as substrate together with individual variants of ACE2-Fc as the enzyme. By using Mca-APK(Dnp), fluorescence signals at 328 nm excitation and 393 nm emission were recorded.

[5] = system: apelin-13; assay: Phenylalanine Assay: ACE2 peptidase activity with apelin-13 as substrate; conditions: phenylalanine hydrolysis, 20 min, 37° C.
Experimental: as §1, §2, §3

[6] = system: Ang II; assay: Mass spectrometry analysis of peptides generated from Ang II by ACE2-Fc; conditions: Ang II peptide as substrate
[7] = system: Mca-APK(Dnp); conditions: cited from earlier work
[8] = molecular target: angiotensin I (Homo sapiens, UniProt Q9BYF1); conditions: cited from earlier work
Sequence of angiotensin I (Q9BYF1 18-805): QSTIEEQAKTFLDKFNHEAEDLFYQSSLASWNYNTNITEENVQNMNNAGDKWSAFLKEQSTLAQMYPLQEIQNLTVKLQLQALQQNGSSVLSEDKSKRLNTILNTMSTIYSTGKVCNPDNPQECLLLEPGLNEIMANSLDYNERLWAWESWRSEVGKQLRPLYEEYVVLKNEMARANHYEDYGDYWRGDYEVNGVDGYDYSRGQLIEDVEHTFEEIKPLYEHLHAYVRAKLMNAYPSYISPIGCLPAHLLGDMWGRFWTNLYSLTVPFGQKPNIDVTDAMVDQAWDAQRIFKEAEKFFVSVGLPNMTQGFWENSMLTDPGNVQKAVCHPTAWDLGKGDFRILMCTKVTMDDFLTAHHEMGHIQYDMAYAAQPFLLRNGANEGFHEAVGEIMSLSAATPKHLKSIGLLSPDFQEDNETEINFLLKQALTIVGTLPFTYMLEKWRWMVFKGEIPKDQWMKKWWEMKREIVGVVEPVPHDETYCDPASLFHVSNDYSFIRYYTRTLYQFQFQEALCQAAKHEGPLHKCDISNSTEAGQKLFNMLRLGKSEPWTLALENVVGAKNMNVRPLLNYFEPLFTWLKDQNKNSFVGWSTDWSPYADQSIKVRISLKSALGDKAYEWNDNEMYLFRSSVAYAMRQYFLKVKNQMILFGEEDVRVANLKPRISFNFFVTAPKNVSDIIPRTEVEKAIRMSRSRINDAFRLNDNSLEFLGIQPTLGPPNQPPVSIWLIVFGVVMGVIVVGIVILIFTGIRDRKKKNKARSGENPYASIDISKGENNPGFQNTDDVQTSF

[9] = molecular target: apelin-13 (Homo sapiens, UniProt Q9BYF1); conditions: cited from earlier work
Sequence of apelin-13 (Homo sapiens, UniProt Q9BYF1) (Q9BYF1 18-805): as above

[10] = molecular target: angiotensin II (Homo sapiens, UniProt Q9BYF1); conditions: cited from earlier work
Sequence of angiotensin II (Q9BYF1 18-805): as above

[11] = molecular target: dynorphin-13 (Homo sapiens, UniProt Q9BYF1); conditions: cited from earlier work
Sequence of dynorphin-13 (Q9BYF1 18-805): as above

[12] = molecular target: RBD of SARS-CoV-2 spike protein (Severe acute respiratory syndrome coronavirus 2, UniProt P0DTC2)
[13] = mice, up to two months; cited from earlier work
[14] = degradation of AngII by the fusion; cited from earlier work

Sequence of ACE2 (Q9BYF1 18-805): as above

## O=C(O)CN(CCN(CC(=O)O)CC(=O)O)CC(=O)O [EDTA]
[1]
  inhibition of ACE2: inhibited

## CC(C)C[C@H](N[C@@H](Cc1cncn1Cc1cc(Cl)cc(Cl)c1)C(=O)O)C(=O)O [MLN-4760]
[1]
  inhibition of ACE2: inhibited

## C[C@H](CS)C(=O)N1CCC[C@H]1C(=O)O [captopril]
[1]
  inhibition of ACE2: not

## NCCCC[C@H](N[C@@H](CCc1ccccc1)C(=O)O)C(=O)N1CCC[C@H]1C(=O)O [linosipril]
[1]
  inhibition of ACE2: not

## E402A: ACE2-Fc fusion with single alanine substitution of Zn2+-binding residue Glu402; loss-of-activity variant
[2]
  peptidase activity toward AngII (Phe release): inactivate ACE2; also recorded: completely lost their enzymatic activity
[2]; listed as Glu402Ala
  peptidase activity toward AngII (Phe release): completely lack of peptidase activity
[3]
  IC50 of pseudotyped viral transduction: 0.25 µg/mL
  inhibition of pseudotyped viral transduction (in words): could suppress the transduction of a pseudotyped virus
[4]
  peptidase activity toward surrogate substrate Mca-APK(Dnp): completely lost their enzymatic activity
[4]; listed as Glu402Ala
  peptidase activity toward surrogate substrate Mca-APK(Dnp): completely lack of peptidase activity
[5]
  peptidase activity toward apelin-13 (Phe release): inactivate ACE2; also recorded: completely lost their enzymatic activity
[5]; listed as Glu402Ala
  peptidase activity toward apelin-13 (Phe release): completely lack of peptidase activity

## H345A: ACE2-Fc fusion with single alanine substitution of His345
[6]
  generation of Ang 1-7 from Ang II by mass spectrometry: full activity; also recorded: remained fully active
[6]; listed as ACE2-Fc H345A
  generation of Ang 1-7 from Ang II by mass spectrometry: full activity

## H345L: Glasgow et al. ACE2 trap with H345L mutation at the catalytic center
[7]
  activity against Mca-APK(Dnp) (Glasgow et al.): loss-of-activity

## H374N/H378N: Glasgow et al. ACE2 trap with double mutations of the Zn2+-binding residues
[7]
  activity against Mca-APK(Dnp) (Glasgow et al.): loss-of-activity

## H378A: ACE2-Fc fusion with single alanine substitution of Zn2+-binding residue His378; loss-of-activity variant
[2]
  peptidase activity toward AngII (Phe release): inactivate ACE2; also recorded: completely lost their enzymatic activity
[2]; listed as His378Ala
  peptidase activity toward AngII (Phe release): completely lack of peptidase activity
[3]
  IC50 of pseudotyped viral transduction: 0.16 µg/mL
  inhibition of pseudotyped viral transduction (in words): could suppress the transduction of a pseudotyped virus
[4]
  peptidase activity toward surrogate substrate Mca-APK(Dnp): completely lost their enzymatic activity
[4]; listed as His378Ala
  peptidase activity toward surrogate substrate Mca-APK(Dnp): completely lack of peptidase activity
[5]
  peptidase activity toward apelin-13 (Phe release): inactivate ACE2; also recorded: completely lost their enzymatic activity
[5]; listed as His378Ala
  peptidase activity toward apelin-13 (Phe release): completely lack of peptidase activity

## R273A
[6]
  generation of Ang 1-7 from Ang II by mass spectrometry: loss of activity
[6]; listed as ACE2-Fc R273A
  generation of Ang 1-7 from Ang II by mass spectrometry: no Ang 1-7 signal was observed
[3]
  IC50 of pseudotyped viral transduction: 0.19 µg/mL
  inhibition of pseudotyped viral transduction (in words): could suppress the transduction of a pseudotyped virus

## angiotensin converting enzyme 2 [ACE2]
[8]
  Km: 6.9 µM
[9]
  Km: 6.8 µM
[10]
  Km: 2 µM
[11]
  Km: 5.5 µM

## wild-type ACE2-Fc: ectodomain of human ACE2 fused to the N-terminus of Fc domain of human IgG1; forms a dimer
[12]
  binding to SARS-CoV-2 spike RBD: highest binding affinity
[13]
  tolerability of repeated doses: well tolerated
[14]
  blood pressure control: blood pressure control for up to two weeks
